Experimental data published in article PMC7179994 (2019).

Target: VLDL receptor (Homo sapiens, UniProt P98155)
Test: SPR

B1: NDSK-II fragment of fibrin NDSK-II (central region) (protein)
chain 1: ADSGEGDFLAEGGGVRGPRVVERHQSACKDSDWPFCSDEDWNYKCPSGCRMKGLIDEVNQDFTNRINKLKNSLFEYQKNNKDSHSLTTNIMEILRGDFSSANNRDNTYNRVSEDLRSRIEVLKRKVIEKVQHIQLLQKNVRAQLVDMKRLEVDIDIKIRSCRGSCSRALAREVDLKDYEDQQKQLEQVIAKDLLPSRDRQHLPLIKMKPVPDLVPGNFKSQLQKVPPEWKALTDMPQMRMELERPGGNEITRGGSTSYGTGSETESPRNPSSAGSWNSGSSGPGSTGNRNPGSSGTGGTATWKPGSSGPGSTGSWNSGSSGTGSTGNQNPGSPRPGSTGTWNPGSSERGSAGHWTSESSVSGSTGQWHSESGSFRPDSPGSGNARPNNPDWGTFEEVSGNVSPGTRREYHTEKLVTSKGDKELRTGKEKVTSGSTTTTRRSCSKTVTKTVIGPDGHKEVTKEVVTSEDGSDCPEAMDLGTLSGIGTLDGFRHRHPDEAAFFDTASTGKTFPGFFSPMLGEFVSETESRGSESGIFTNTKESSSHHPGIAEFPSRGKSSSYSKQFTSSTSYNRGDSTFESKSYKMADEAGSEADHEGTHSTKRGHAKSRPVRDCDDVLQTHPSGTQSGIFNIKLPGSSKIFSVYCDQETSLGGWLLIQQRMDGSLNFNRTWQDYKRGFGSLNDEGEGEFWLGNDYLHLLTQRGSVLRVELEDWAGNEAYAEYHFRVGSEAEGYALQVSSYEGTAGDALIEGSVEEGAEYTSHNNMQFSTFDRDADQWEENCAEVYGGGWWYNNCQAANLNGIYYPGGSYDPRNNSPYEIENGVVWVSFRGADYSLRAVRMKIRPLVTQ
chain 2: QGVNDNEEGFFSARGHRPLDKKREEAPSLRPAPPPISGGGYRARPAKAAATQKKVERKAPDAGGCLHADPDLGVLCPTGCQLQEALLQQERPIRNSVDELNNNVEAVSQTSSSSFQYMYLLKDLWQKRQKQVKDNENVVNEYSSELEKHQLYIDETVNSNIPTNLRVLRSILENLRSKIQKLESDVSAQMEYCRTPCTVSCNIPVVSGKECEEIIRKGGETSEMYLIQPDSSVKPYRVYCDMNTENGGWTVIQNRQDGSVDFGRKWDPYKQGFGNVATNTDGKNYCGLPGEYWLGNDKISQLTRMGPTELLIEMEDWKGDKVKAHYGGFTVQNEANKYQISVNKYRGTAGNALMDGASQLMGENRTMTIHNGMFFSTYDRDNDGWLTSDPRKQCSKEDGGGWWYNRCHAANPNGRYYWGGQYTWDMAKHGTDDGVVWMNWKGSWYSMRKMSMKIRPFFPQQ
chain 3: YVATRDNCCILDERFGSYCPTTCGIADFLSTYQTKVDKDLQSLEDILHQVENKTSEVKQLIKAIQLTYNPDESSKPNMIDAATLKSRKMLEEIMKYEASILTHDSSIRYLQEIYNSNNQKIVNLKEKVAQLEAQCQEPCKDTVQIHDITGKDCQDIANKGAKQSGLYFIKPLKANQQFLVYCEIDGSGNGWTVFQKRLDGSVDFKKNWIQYKEGFGHLSPTGTTEFWLGNEKIHLISTQSAIPYALRVELEDWNGRTSTADYAMFKVGPEADKYRLTYAYFAGGDAGDAFDGFDFGDDPSDKFFTSHNGMQFSTWDNDNDKFEGNCAEQDGSGWWMNKCHAGHLNGVYYQGGTYSKASTPNGYDNGIIWATWKTRWYSMKKTTMKIIPFNRLTIGEGQQHHLGGAKQVRPEHPAETEYDSLYPEDDL
- Kd: 9.6 nM
